T1: recombinant human IL-23R/Fc chimera (R&D Systems) (human, UniProt Q5VWK5 24-353)
T1 construct: bought; also called human IL-23R/Fc fusion protein; rhIL23RFc
T1 sequence (looked up): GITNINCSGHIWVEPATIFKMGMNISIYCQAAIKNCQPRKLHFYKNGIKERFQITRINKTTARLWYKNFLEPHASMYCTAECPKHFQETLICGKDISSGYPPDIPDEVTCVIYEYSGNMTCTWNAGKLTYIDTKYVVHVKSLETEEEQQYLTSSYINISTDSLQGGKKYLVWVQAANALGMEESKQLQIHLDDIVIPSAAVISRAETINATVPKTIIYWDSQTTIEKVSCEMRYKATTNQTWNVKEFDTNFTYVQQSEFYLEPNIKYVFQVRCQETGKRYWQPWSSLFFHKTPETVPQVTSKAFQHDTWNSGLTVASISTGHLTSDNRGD


Target: T1, recombinant human IL-23R/Fc chimera …
Assay: competition ELISA against IL-23
Method: Assays were performed generally as follows. Individual wells in Immulon HB2 plates were incubated overnight at 4° C. with 100 μL PBS containing 100 ng of an anti-human IgG Fc (R&D MAB 110 clone 97924). Plates were washed five times with PBS/0.05% Tween 20, and wells were incubated for 1.5 h at RT with 100 μL each of PBS containing 50 ng of recombinant human IL-23R/Fc. […] Competitor was included at a final concentration of 1 μg/mL. After incubation, plates were washed as described and wells were incubated for 40 min at RT with 100 μL each of PBS containing a 1:5000 dilution of streptavidin-HRP conjugate (Pierce catalog no. 21130). After washing, wells were incubated with 100 μL each of TMB (BioFX Lab catalog no. TMBH-1000-0) for up to 30 min at RT. Reactions were stopped with an equal volume of 0.2 M sulfuric acid.

Binder | Ratio IC50 to 056-53.H4E IC50 [ratio]
105-08-1C9 ATRIMER (designed binder, not shown: C-terminal tag: His/Myc (pANA4) or HA-StrepII (pANA10)) EPPTQKPKKIVNAKKDVVNTKMFEELKSRLDTLAQEVALLKEQQALQTVCLKGTKVHMKCFLAFTQTKTFHEASEDCISRGGTLSTPQTGSENDALYEYLRQSVGNEAEIWLGLNGSTLTDTWVDMTGARIAYKNWETEITAQPDGGFGYFGENCAVLSGAANGKWFDKRCRDQLPYICQFGIV | 7.4
105-08-1D10 ATRIMER (designed binder, not shown: C-terminal tag: His/Myc (pANA4) or HA-StrepII (pANA10)) EPPTQKPKKIVNAKKDVVNTKMFEELKSRLDTLAQEVALLKEQQALQTVCLKGTKVHMKCFLAFTQTKTFHEASEDCISRGGTLSTPQTGSENDALYEYLRQSVGNEAEIWLGLNGSARTGTWVDMTGARIAYKNWETEITAQPDGGWGYFGENCAVLSGAANGKWFDKRCRDQLPYICQFGIV | 5.5
105-08-1C10 ATRIMER (designed binder) EPPTQKPKKIVNAKKDVVNTKMFEELKSRLDTLAQEVALLKEQQALQTVCLKGTKVHMKCFLAFTQTKTFHEASEDCISRGGTLSTPQTGSENDALYEYLRQSVGNEAEIWLGLNGSSVTNTWVDMTGARIAYKNWETEITAQPDGGWGYFGENCAVLSGAANGKWFDKRCRDQLPYICQFGIV | 5
105-08-2B3 ATRIMER (designed binder) EPPTQKPKKIVNAKKDVVNTKMFEELKSRLDTLAQEVALLKEQQALQTVCLKGTKVHMKCFLAFTQTKTFHEASEDCISRGGTLSTPQTGSENDALYEYLRQSVGNEAEIWLGLNGSAITNTWVDMTGARIAYKNWETEITAQPDGGWGYFGENCAVLSGAANGKWFDKRCRDQLPYICQFGIV | 3.4
105-08-1G9 ATRIMER (designed binder, not shown: C-terminal tag: His/Myc (pANA4) or HA-StrepII (pANA10)) EPPTQKPKKIVNAKKDVVNTKMFEELKSRLDTLAQEVALLKEQQALQTVCLKGTKVHMKCFLAFTQTKTFHEASEDCISRGGTLSTPQTGSENDALYEYLRQSVGNEAEIWLGLNGSPKTDTWVDMTGARIAYKNWETEITAQPDGGFGYFGENCAVLSGAANGKWFDKRCRDQLPYICQFGIV | 2.4
105-08-1D3 ATRIMER (designed binder, not shown: C-terminal purification tag: Myc/His6 (pANA4) or HA-StrepII (pANA10)) EPPTQKPKKIVNAKKDVVNTKMFEELKSRLDTLAQEVALLKEQQALQTVCLKGTKVHMKCFLAFTQTKTFHEASEDCISRGGTLSTPQTGSENDALYEYLRQSVGNEAEIWLGLNGSKVTETWVDMTGARIAYKNWETEITAQPDGGFGYFGENCAVLSGAANGKWFDKRCRDQLPYICQFGIV | 0.4
105-08-1D12 ATRIMER (designed binder) EPPTQKPKKIVNAKKDVVNTKMFEELKSRLDTLAQEVALLKEQQALQTVCLKGTKVHMKCFLAFTQTKTFHEASEDCISRGGTLSTPQTGSENDALYEYLRQSVGNEAEIWLGLNGSVLTDTWVDMTGARIAYKNWETEITAQPDGGFGYFGENCAVLSGAANGKWFDKRCRDQLPYICQFGIV | 4.6
105-08-1D2 ATRIMER (designed binder, Forms a homotrimer (ATRIMER) through the tetranectin coiled coil; one protomer is given., not shown: C-terminal tag) EPPTQKPKKIVNAKKDVVNTKMFEELKSRLDTLAQEVALLKEQQALQTVCLKGTKVHMKCFLAFTQTKTFHEASEDCISRGGTLSTPQTGSENDALYEYLRQSVGNEAEIWLGLNGSPVTDTWVDMTGARIAYKNWETEITAQPDGGFGYFGENCAVLSGAANGKWFDKRCRDQLPYICQFGIV | 4.3
105-08-2C4 ATRIMER (designed binder, Homotrimer of the given chain (ATRIMER complex).) EPPTQKPKKIVNAKKDVVNTKMFEELKSRLDTLAQEVALLKEQQALQTVCLKGTKVHMKCFLAFTQTKTFHEASEDCISRGGTLSTPQTGSENDALYEYLRQSVGNEAEIWLGLNGSLLTNTWVDMTGARIAYKNWETEITAQPDGGFGYFGENCAVLSGAANGKWFDKRCRDQLPYICQFGIV | 2.9
105-08-2A1 ATRIMER (designed binder) EPPTQKPKKIVNAKKDVVNTKMFEELKSRLDTLAQEVALLKEQQALQTVCLKGTKVHMKCFLAFTQTKTFHEASEDCISRGGTLSTPQTGSENDALYEYLRQSVGNEAEIWLGLNGSMRTDTWVDMTGARIAYKNWETEITAQPDGGWGYFGENCAVLSGAANGKWFDKRCRDQLPYICQFGIV | 5
105-08-1D1 ATRIMER (designed binder) EPPTQKPKKIVNAKKDVVNTKMFEELKSRLDTLAQEVALLKEQQALQTVCLKGTKVHMKCFLAFTQTKTFHEASEDCISRGGTLSTPQTGSENDALYEYLRQSVGNEAEIWLGLNGSALTDTWVDMTGARIAYKNWETEITAQPDGGWGYFGENCAVLSGAANGKWFDKRCRDQLPYICQFGIV | 3.6
105-08-1G12 ATRIMER (designed binder) EPPTQKPKKIVNAKKDVVNTKMFEELKSRLDTLAQEVALLKEQQALQTVCLKGTKVHMKCFLAFTQTKTFHEASEDCISRGGTLSTPQTGSENDALYEYLRQSVGNEAEIWLGLNGSLRTGTWVDMTGARIAYKNWETEITAQPDGGWGYFGENCAVLSGAANGKWFDKRCRDQLPYICQFGIV | 13.2
105-08-2C1 ATRIMER (designed binder) EPPTQKPKKIVNAKKDVVNTKMFEELKSRLDTLAQEVALLKEQQALQTVCLKGTKVHMKCFLAFTQTKTFHEASEDCISRGGTLSTPQTGSENDALYEYLRQSVGNEAEIWLGLNGSSLTDTWVDMTGARIAYKNWETEITAQPDGGWGYFGENCAVLSGAANGKWFDKRCRDQLPYICQFGIV | 3.6
105-08-1G2 ATRIMER (designed binder, not shown: C-terminal tag: His/Myc (pANA4) or HA-StrepII (pANA10)) EPPTQKPKKIVNAKKDVVNTKMFEELKSRLDTLAQEVALLKEQQALQTVCLKGTKVHMKCFLAFTQTKTFHEASEDCISRGGTLSTPQTGSENDALYEYLRQSVGNEAEIWLGLNGSSKTNTWVDMTGARIAYKNWETEITAQPDGGWGYFGENCAVLSGAANGKWFDKRCRDQLPYICQFGIV | 5.5
105-08-1C11 ATRIMER (designed binder, not shown: C-terminal tag: His/Myc (pANA4) or HA-StrepII (pANA10)) EPPTQKPKKIVNAKKDVVNTKMFEELKSRLDTLAQEVALLKEQQALQTVCLKGTKVHMKCFLAFTQTKTFHEASEDCISRGGTLSTPQTGSENDALYEYLRQSVGNEAEIWLGLNGSSRTDTWVDMTGARIAYKNWETEITAQPDGGFGYFGENCAVLSGAANGKWFDKRCRDQLPYICQFGIV | 2.8
105-08-2C6 ATRIMER (designed binder) EPPTQKPKKIVNAKKDVVNTKMFEELKSRLDTLAQEVALLKEQQALQTVCLKGTKVHMKCFLAFTQTKTFHEASEDCISRGGTLSTPQTGSENDALYEYLRQSVGNEAEIWLGLNGSQRTDTWVDMTGARIAYKNWETEITAQPDGGWGYFGENCAVLSGAANGKWFDKRCRDQLPYICQFGIV | 3.6
105-08-2C8 ATRIMER (designed binder) EPPTQKPKKIVNAKKDVVNTKMFEELKSRLDTLAQEVALLKEQQALQTVCLKGTKVHMKCFLAFTQTKTFHEASEDCISRGGTLSTPQTGSENDALYEYLRQSVGNEAEIWLGLNGSWLTDTWVDMTGARIAYKNWETEITAQPDGGWGYFGENCAVLSGAANGKWFDKRCRDQLPYICQFGIV | 8.4
